Data on 94 variants can be found in the supplement of paper PMC10567573.

The chains are these.
B1: STEAP1 (parent)
chain: LWKMKPRRNLEEDDYLHKDTGETS
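Also: lentivirally expressed fusions sorted by FACS into six bins by GFP to DsRed ratio, PSI derived from sequencing read proportions per bin multiplied by bin number.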

Variants of B1 are the subject of this series. The experiment in a line: protein stability index of a GFP-peptide fusion (GPS, HEK-293T) (PSI 1-6); higher = more stable. To be noted: c terminus: a fixed tail appended.
Turning to LWKMKPRRNLEEDDYLHKDTTETS, the protein stability index came out at 4.49. As for LWKMKPRRNLEEDDYLHKDTAETS, the protein stability index was 4.65.

With LWKMKPRRNLEEDDYLHKDTPETS, the protein stability index is 4.77. On to LWKMKPRRNLEEDDYLHKDTMETS, for which the protein stability index worked out at 3.93. On to LWKMKPRRNLEEDDYLHKDTFETS, for which the protein stability index was 3.92. Consider LWKMFPRRNLEEDDYLHKDTGETS, for which the protein stability index worked out at 2.77. For the variant LWKMPPRRNLEEDDYLHKDTGETS, the protein stability index worked out at 4.91. In the case of LWKMSPRRNLEEDDYLHKDTGETS, the protein stability index amounted to 5.01.

Regarding LWKMVPRRNLEEDDYLHKDTGETS, the protein stability index was 3.94.

Regarding LWKMIPRRNLEEDDYLHKDTGETS, the protein stability index worked out at 3.36.

LWKMKPRRNLWEDDYLHKDTGETS: the protein stability index was 3.22. To LWKMKPRRNLEERDYLHKDTGETS belongs 4.15. LWKMKPRRNLEEVDYLHKDTGETS: the protein stability index amounted to 3.87. Regarding LWKMKPRRNLEECDYLHKDTGETS, the protein stability index is 3.65. Regarding LWKMKPRRNLEEDDYLHKLTGETS, the protein stability index worked out at 3.33. As to LWKMKPRRNLEEDDYLHKTTGETS, the protein stability index was 3.83. With LWKMKPRRNLEEDDYLHKQTGETS, the protein stability index is 4.1. LWKMKPRRNIEEDDYLHKDTGETS: the protein stability index was 4.67. For LWKMKPRRNGEEDDYLHKDTGETS, the protein stability index is 4.02. Regarding LWKMKPRRNTEEDDYLHKDTGETS, the protein stability index worked out at 4.69. In the case of LWKMKPRRNLEEDLYLHKDTGETS it was 3.8. Consider LWKMKPRRNLEEDQYLHKDTGETS, for which the protein stability index stood at 4.32. In the case of LWKMKPRRNLEEDKYLHKDTGETS, the protein stability index stood at 4.53. Consider LWKMKPRRNLEEDPYLHKDTGETS, for which the protein stability index is 4.34. Turning to LWKMKPRRNLEEDAYLHKDTGETS, the protein stability index is 4.21. Consider LWKMKPRRNLEEDDYLHKDTGEGS, for which the protein stability index is 4.26.

On to LWKMKPRRNLEEDDYLHKDTGEQS, for which the protein stability index came to 4.52. In the case of LWKMKPRRNLEEDDYLHKDTGEIS it was 3.53. On to LWKEKPRRNLEEDDYLHKDTGETS, for which the protein stability index stood at 4.94.

Turning to LWKAKPRRNLEEDDYLHKDTGETS, the protein stability index came out at 4.43. Regarding LWNMKPRRNLEEDDYLHKDTGETS, the protein stability index turned out to be 4.8. In the case of LWHMKPRRNLEEDDYLHKDTGETS it was 4.54. To LWIMKPRRNLEEDDYLHKDTGETS belongs 2.86; to LWVMKPRRNLEEDDYLHKDTGETS, 3.67; to LWAMKPRRNLEEDDYLHKDTGETS, 4.19. Take LWKMKPRRNLEEDDYCHKDTGETS: the protein stability index is 4.63. As for LWKMKPRRNLEEDDYKHKDTGETS, the protein stability index amounted to 4.59. As to LWKMKPRRNLEEDDYTHKDTGETS, the protein stability index was determined as 4.74. Consider LWKMKPRRNLEEDDYAHKDTGETS, for which the protein stability index is 4.74. Consider LWKMKPRRNLESDDYLHKDTGETS, for which the protein stability index was 4.45. Take LWKMKPRRNLELDDYLHKDTGETS: the protein stability index came to 3.74. LWKMKPRRNLEKDDYLHKDTGETS: the protein stability index was 4.25. Consider LWKMKPRRNLEQDDYLHKDTGETS, for which the protein stability index came out at 4.23.

In the case of LWKMKPRRNLEWDDYLHKDTGETS, the protein stability index amounted to 3.16. Turning to LWKMKPRRNLECDDYLHKDTGETS, the protein stability index was 3.96. Consider LWKMKPRRNLEIDDYLHKDTGETS, for which the protein stability index stood at 3.66. Consider LDKMKPRRNLEEDDYLHKDTGETS, for which the protein stability index was 5.62. Regarding LTKMKPRRNLEEDDYLHKDTGETS, the protein stability index is 5.22. In the case of LWKMKPGRNLEEDDYLHKDTGETS, the protein stability index came out at 4.42. In the case of LWKMKPFRNLEEDDYLHKDTGETS it was 3.55; in that of LWKMKPHRNLEEDDYLHKDTGETS, 4.69.

For LWKMKPARNLEEDDYLHKDTGETS, the protein stability index stood at 4.83.

On to LWKMKPIRNLEEDDYLHKDTGETS, for which the protein stability index was found to be 4.26. Turning to LWKMKPRRNLEEDDYLHKDTGETI, the protein stability index came out at 3.96.

In the case of LWKMKPRRNLEEDDYLHKDTGETA, the protein stability index came to 4.61. LWKMKPRRNLEEDDYLHKDTGETP: the protein stability index came to 4.3. In the case of LWKMKPRRNLEEDDYLHKDTGETK it was 4.47; in that of LWKMKPRRNLEEDDILHKDTGETS, 3.61; in that of LWKMKPRRNLEEDDFLHKDTGETS, 4.14. On to LWKMKPRRNLEEDDSLHKDTGETS, for which the protein stability index worked out at 5.16. Take LWKMKPRRNLEEDDHLHKDTGETS: the protein stability index came out at 4.66. Take LWKMKPRRNLEEDDQLHKDTGETS: the protein stability index amounted to 4.92. With MWKMKPRRNLEEDDYLHKDTGETS, the protein stability index was 4.59. As to LWKMKPRRALEEDDYLHKDTGETS, the protein stability index was 4.41. To LWKMKPRRHLEEDDYLHKDTGETS belongs 4.47. Consider LWKMKPRRYLEEDDYLHKDTGETS, for which the protein stability index is 4.07. For the variant LWKMKPRRCLEEDDYLHKDTGETS, the protein stability index turned out to be 3.81. As for LWKMKPRRQLEEDDYLHKDTGETS, the protein stability index came to 4.41. For the variant LWKMKPRRNLEEDDYLHFDTGETS, the protein stability index turned out to be 3.38.

Consider LWKMKPRRNLEEDDYLHGDTGETS, for which the protein stability index was 4.73.

Take LWKMKPRRNLEEDDYLHADTGETS: the protein stability index was found to be 5.12. As for LWKMKPRRNLEEDDYLHKDTGWTS, the protein stability index was 2.56. For LWKMKPRRNLEEDDYLHKDTGSTS, the protein stability index turned out to be 4.08. As to LWKMKPRRNLEEDDYLHKDTGYTS, the protein stability index is 3.46. Turning to LWKMKPRRNLEEDDYLHKDTGMTS, the protein stability index was 3.85. To LWKMKPRRNLEEDDYLHKDTGITS belongs 3.73; to LWKMKPRRNLEEDDYLFKDTGETS, 4.16. For the variant LWKMKPRRNLEEDDYLMKDTGETS, the protein stability index amounted to 4.29. In the case of LWKMKPRRNLEEDDYLVKDTGETS it was 4.71; in that of LWKMKPRRNLEEDDYLRKDTGETS, 4.41; in that of LWKMKPRRNLEEDDYLDKDTGETS, 4.94. In the case of LWKMKPRRNLEEDDYLLKDTGETS, the protein stability index was 4.09.

For the variant LWKMKPRRNLEEDDYLQKDTGETS, the protein stability index amounted to 4.68. Regarding LWKMKHRRNLEEDDYLHKDTGETS, the protein stability index was 4. Consider LWKMKTRRNLEEDDYLHKDTGETS, for which the protein stability index amounted to 4.47.

With LWKMKYRRNLEEDDYLHKDTGETS, the protein stability index is 3.96.

Turning to LWKMKMRRNLEEDDYLHKDTGETS, the protein stability index was found to be 3.77.

As to LWKMKPRRNLEEDDYLHKDCGETS, the protein stability index was 4.31.

Consider LWKMKPRRNLEEDDYLHKDHGETS, for which the protein stability index was found to be 4.26. Consider LWKMKPRRNLEEDDYLHKDSGETS, for which the protein stability index was found to be 4.19. As for LWKMKPRANLEEDDYLHKDTGETS, the protein stability index was determined as 4.61.

With LWKMKPRCNLEEDDYLHKDTGETS, the protein stability index came out at 3.79. Regarding LWKMKPRVNLEEDDYLHKDTGETS, the protein stability index amounted to 4.08. With LWKMKPRHNLEEDDYLHKDTGETS, the protein stability index came out at 4.1.
